Assay results as given in US20160033523A1 (NOVOZYMES BIOPHARMA DK A S, published 2016).

B1: Soluble pig FcRn with pig beta2-microglobulin, HIS-tagged (Example 4) (receptor)
chain: ADNHRSLLYHLTAVSAPTPGAPAFWVSGWLGPQQYLSYNNLRAQAEPYGAWVWESQVSWYWEKETADLRNKQKLFLEALKTLEEGGPFTLQGLLGCELGPDNVSVPVATFALNGEEFMKFDTKLGTWDGEWPEARTIGSKWMQEPDAVNKEKTFLLYSCPHRLLGHLERGRGNLEWKEPPSMRMKARPGTAPGFSVLTCIAFSFYPPELQLRFLRNGLAAGSGESDIGPNGDGSFHAWSSLTVKSGDEHHYCCVVQHAGLAQPLTVEL
b2m: VARPPKVQVYSRHPAENGKPNYLNCYVSGFHPPQIEIDLLKNGEKMNAEQSDLSFSKDWSFYLLVHTEFTPNAVDQYSCRVKHVTLDKPKIVKWDRDH
notes: also called pFcRn; not shown: HIS-tag on the C-terminal of the beta-chain
B2: Soluble guinea pig FcRn with guinea pig beta2-microglobulin, HIS-tagged (receptor)
chain: AENHLSLLYHLTAVSSPATGSPAFWVSGWLGPQQYLSYSSLRREAEPCGAWVWETQVSWYWEMETTDLKNKESLFLEALKALGGKGPYTLQGILGCELSPDNSSVPTALFALNGEDFMEFHPENGSWTGDWPEALSISKQWEKKAEVVSKEKTFLLSSCPQRLLDHLERSRRNLEWKEPPSMRLKARPGDAGFSVLTCSAFSFYPPELQLRFLHNGLAAGTGEGGFGPNGDGSFHAWSSLTVQRGDEHNYRCLVQHAGLPQPLSVELESPAGSS
b2m: VLHAPRVQVYSRHPAENGKQNFINCYVSGFHPPQIEVELLKNGKKIDNVEMSDLSFSKDWTFYLLVHAAFTPNDSDEYSCRVSHITLSEPKIVKWDPNK
notes: Synthesized by GeneArt, expressed in HEK cells; also called gpFcRn; gpFcRN; not shown: HIS-tag on the C-terminal of the beta-chain
B3: Wild type rhesus monkey serum albumin (ligand)
chain: DTHKSEVAHRFKDLGEEHFKGLVLVAFSQYLQQCPFEEHVKLVNEVTEFAKTCVADESAENCDKSLHTLFGDKLCTVATLRETYGEMADCCAKQEPERNECFLQHKDDNPNLPPLVRPEVDVMCTAFHDNEATFLKKYLYEVARRHPYFYAPELLFFAARYKAAFAECCQAADKAACLLPKLDELRDEGKASSAKQRLKCASLQKFGDRAFKAWAVARLSQKFPKAEFAEVSKLVTDLTKVHTECCHGDLLECADDRADLAKYMCENQDSISSKLKECCDKPLLEKSHCLAEVENDEMPADLPSLAADYVESKDVCKNYAEAKDVFLGMFLYEYARRHPDYSVMLLLRLAKAYEATLEKCCAAADPHECYAKVFDEFQPLVEEPQNLVKQNCELFEQLGEYKFQNALLVRYTKKVPQVSTPTLVEVSRNLGKVGAKCCKLPEAKRMPCAEDYLSVVLNRLCVLHEKTPVSEKVTKCCTESLVNRRPCFSALELDEAYVPKAFNAETFTFHADMCTLSEKEKQVKKQTALVELVKHKPKATKEQLKGVMDNFAAFVEKCCKADDKEACFAEEGPKFVAASQAALA
notes: also called rmSA; rmSA Wt
B4: Wild type pig serum albumin (ligand)
chain: DTYKSEIAHRFKDLGEQYFKGLVLIAFSQHLQQCPYEEHVKLVREVTEFAKTCVADESAENCDKSIHTLFGDKLCAIPSLREHYGDLADCCEKEEPERNECFLQHKNDNPDIPKLKPDPVALCADFQEDEQKFWGKYLYEIARRHPYFYAPELLYYAIIYKDVFSECCQAADKAACLLPKIEHLREKVLTSAAKQRLKCASIQKFGERAFKAWSLARLSQRFPKADFTEISKIVTDLAKVHKECCHGDLLECADDRADLAKYICENQDTISTKLKECCDKPLLEKSHCIAEAKRDELPADLNPLEHDFVEDKEVCKNYKEAKHVFLGTFLYEYSRRHPDYSVSLLLRIAKIYEATLEDCCAKEDPPACYATVFDKFQPLVDEPKNLIKQNCELFEKLGEYGFQNALIVRYTKKVPQVSTPTLVEVARKLGLVGSRCCKRPEEERLSCAEDYLSLVLNRLCVLHEKTPVSEKVTKCCTESLVNRRPCFSALTPDETYKPKEFVEGTFTFHADLCTLPEDEKQIKKQTALVELLKHKPHATEEQLRTVLGNFAAFVQKCCAAPDHEACFAVEGPKFVIEIRGILA
notes: also called PSA; pig SA
B5: Wild type guinea pig serum albumin (ligand)
chain: EAHKSEIAHRFNDLGEGHFKGLVLITLSQHLQKSPFEEHVKLVNEVTDFAKACVADESAQNCGKAIATLFGDKVCAIPSLRETYGELADCCAKEDPDRVECFLQHKDDNPNLPPFERPEPEALCTAFKENNDRFIGHYLYEVSRRHPYFYAPELLYYAEKYKNALTECCEAADKAACLTPKLDAIKEKALVSSAQQRLKCASLQKFGERAFKAWSVARLSQKFPKAEFAEISTIVTSLTKVTKECCHGDLLECADDRQELAKYMCEHQDSISSKLKECCVKPTLQKAHCILEIQRDELPTELPDLAVDFVEDKEVCKNFAEAKDVFLGTFLYEYSRRHPEYSIGMLLRIAKGYEAKLEKCCAEADPHACYAKVFDELQPLIDEPKKLVQQNCELFDKLGEYGFQNALAVRYTQKAPQVSTPTLVEYARKLGSVGTKCCSLPETERLSCTENYLALILNRLCILHEKTPVSERVTKCCTESLVNRRPCFSALHVDETYVPKPFHADSFTFHADICTLPEKEKQVKKQMALVELVKHKPKASEEQMKTVMGDFAAFLKKCCDADNKEACFTEDGPKLVAKCQATLA
notes: also called GPSA; guinea pig SA
B6: Wild type dog serum albumin (ligand)
chain: EAYKSEIAHRYNDLGEEHFRGLVLVAFSQYLQQCPFEDHVKLAKEVTEFAKACAAEESGANCDKSLHTLFGDKLCTVASLRDKYGDMADCCEKQEPDRNECFLAHKDDNPGFPPLVAPEPDALCAAFQDNEQLFLGKYLYEIARRHPYFYAPELLYYAQQYKGVFAECCQAADKAACLGPKIEALREKVLLSSAKERFKCASLQKFGDRAFKAWSVARLSQRFPKADFAEISKVVTDLTKVHKECCHGDLLECADDRADLAKYMCENQDSISTKLKECCDKPVLEKSQCLAEVERDELPGDLPSLAADFVEDKEVCKNYQEAKDVFLGTFLYEYARRHPEYSVSLLLRLAKEYEATLEKCCATDDPPTCYAKVLDEFKPLVDEPQNLVKTNCELFEKLGEYGFQNALLVRYTKKAPQVSTPTLVEVSRKLGKVGTKCCKKPESERMSCAEDFLSVVLNRLCVLHEKTPVSERVTKCCSESLVNRRPCFSGLEVDETYVPKEFNAETFTFHADLCTLPEAEKQVKKQTALVELLKHKPKATDEQLKTVMGDFGAFVEKCCAAENKEGCFSEEGPKLVAAAQAALV
notes: also called DSA

What was measured:
[1] = biological target: T1, Wild type human serum albumin (human, UniProt P02768 25-609); test: SPR, albumin over immobilized His-FcRn, pH 5.5, steady state
T1 construct: also called HSA; HSA Wt
T1 sequence (P02768 25-609): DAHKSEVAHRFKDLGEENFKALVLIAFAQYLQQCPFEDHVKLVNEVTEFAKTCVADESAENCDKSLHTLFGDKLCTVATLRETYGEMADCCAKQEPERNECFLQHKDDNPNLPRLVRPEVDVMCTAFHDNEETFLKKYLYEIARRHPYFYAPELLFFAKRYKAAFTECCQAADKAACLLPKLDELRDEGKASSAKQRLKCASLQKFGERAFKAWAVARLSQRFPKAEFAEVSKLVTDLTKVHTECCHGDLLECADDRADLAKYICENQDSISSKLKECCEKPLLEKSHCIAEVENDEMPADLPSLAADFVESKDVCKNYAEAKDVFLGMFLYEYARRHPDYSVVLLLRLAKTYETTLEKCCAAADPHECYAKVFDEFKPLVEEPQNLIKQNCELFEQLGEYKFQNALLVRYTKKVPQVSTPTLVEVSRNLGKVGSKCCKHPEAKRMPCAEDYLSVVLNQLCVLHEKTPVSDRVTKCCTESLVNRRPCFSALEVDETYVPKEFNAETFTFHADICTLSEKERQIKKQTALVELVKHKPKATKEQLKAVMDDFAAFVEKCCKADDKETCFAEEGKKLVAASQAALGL
Experimental: (§1) SPR experiments were carried out using a Biacore 3000 instrument (GE Healthcare). Flow cells of CM5 sensor chips were coupled with soluble FcRn from one of the following species, human (shFcRn), rat (srFcRn), mouse (smFcRn), rhesus monkey (srmFcRn), dog (dFcRn) or pig (pFcRn) (˜900-2500 resonance units (RU)) using GE Healthcare amine coupling chemistry as per the manufacturer's instructions. The coupling was performed by injecting 2 or 10 μg/ml FcRn in 10 mM sodium acetate pH 5.0 (GE healthcare). Phosphate buffer (67 mM phosphate buffer, 0.15 M NaCl, 0.005% Tween 20) at pH 6.0) was used as running buffer and dilution buffer. Regeneration of the surfaces were done using injections of HBS-EP buffer (0.01 M HEPES, 0.15 M NaCl, 3 mM EDTA, 0.005% surfactant P20) at pH 7.4 (GE Healthcare). For determination of binding kinetics, serial dilutions of albumin (10-0.3 μM) were injected over immobilized receptors at a constant flow rate (50 μl/min) at 25° C. In all experiments, data were zero adjusted and the reference cell subtracted.
(§2) The SPR assay was conducted with the following variations to the assay described in the Materials and Method section:
(§3) The soluble FcRn receptors were synthesized by GeneArt and expressed in HEK cells. The soluble FcRn contained a HIS-tag on the C-terminal of the Beta-chain instead of a GST on the heavy chain and the beta-chain used was the native beta-chain of the animal (see Materials and Method section for the corresponding sequences). The soluble FcRn was purified by a HIS trap column followed by an additional purification using an IgG column. The soluble FcRn receptor was diluted to 20 μg/mL. The phosphate buffer used as running buffer in the SPR assay was at pH 5.5 instead of pH 6.0. […] 1:1 Langmuir or Steady state model was used.

[2] = biological target: T2, N-terminally c-myc tagged Wt HSA (human, UniProt P02768 25-609); test: as above
T2 construct: Secreted from yeast; a +2058 Da miscleaved leader species was reduced to below 5%; also called c-myc-HSA Wt; Cmyc-WT HSA
T2 sequence (P02768 other isoform, or with tags, fused parts or gaps): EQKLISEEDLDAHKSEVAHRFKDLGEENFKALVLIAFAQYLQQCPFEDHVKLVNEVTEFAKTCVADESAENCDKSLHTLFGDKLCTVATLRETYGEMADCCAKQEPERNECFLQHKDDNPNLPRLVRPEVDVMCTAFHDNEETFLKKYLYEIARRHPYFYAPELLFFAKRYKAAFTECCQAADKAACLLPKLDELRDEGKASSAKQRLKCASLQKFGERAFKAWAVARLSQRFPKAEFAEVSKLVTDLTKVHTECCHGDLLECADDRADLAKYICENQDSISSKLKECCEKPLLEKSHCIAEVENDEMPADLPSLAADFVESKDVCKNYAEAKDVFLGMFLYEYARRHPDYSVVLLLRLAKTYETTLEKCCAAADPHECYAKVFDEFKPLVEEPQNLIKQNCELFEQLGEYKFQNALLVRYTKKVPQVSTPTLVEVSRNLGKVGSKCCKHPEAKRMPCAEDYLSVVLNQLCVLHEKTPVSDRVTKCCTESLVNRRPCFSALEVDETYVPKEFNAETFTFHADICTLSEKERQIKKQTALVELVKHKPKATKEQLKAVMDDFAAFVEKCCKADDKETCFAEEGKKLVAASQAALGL
Experimental: as §1, §2, §3

[3] = biological target: B4; test: as above
Experimental: as §1, §2, §3

[4] = biological target: T3, N-terminally c-myc tagged albumin variant K573P (human, UniProt P02768 25-609); test: SPR, albumin over immobilized His-FcRn, pH 5.5, 1:1 Langmuir
T3 construct: Substitution numbered on mature HSA, not on the tagged chain; also called c-myc-K573P
T3 sequence (P02768 other isoform, or with tags, fused parts or gaps K573P K573P): as the sequence (P02768 other isoform, or with tags, fused parts or gaps) above, with K583P counted along it
Experimental: as §1, §2, §3

HSA K573P = biological target: T4, HSA K573P (human, UniProt P02768 25-609); test: as above
T4 construct: Variant of mature HSA
T4 sequence (P02768 25-609 K597P): as the sequence (P02768 25-609) above, with K573P counted along it
Experimental: as §1, §2, §3

[5] = biological target: T5, Soluble rhesus monkey FcRn, GST-tagged, with human beta2-microglobulin (rhesus monkey; Schistosoma japonicum; …, UniProt P08515 1-218 = GST); test: SPR, albumin over immobilized GST-FcRn, pH 6.0, 1:1 model
T5 construct: also called srmFcRn; soluble rhesus macaque FcRn
Experimental: as §1

[6] = biological target: T6, Soluble pig FcRn, GST-tagged, with human beta2-microglobulin (Example 2) (pig; Schistosoma japonicum; human, UniProt P08515 1-218 = GST); test: as above
T6 construct: also called pFcRn; spFcRn
Experimental: as §1

[7] = biological target: T7, Soluble dog FcRn, GST-tagged, with human beta2-microglobulin (dog; Schistosoma japonicum; human, UniProt P08515 1-218 = GST); test: as above
T7 construct: also called dFcRn
Experimental: as §1

[8] = biological target: T7, Soluble dog FcRn, GST-tagged, with …; test: SPR, albumin over immobilized GST-FcRn, pH 6.0, estimated from steady state
Experimental: as §1

[9] = biological target: B2; test: SPR, albumin over immobilized His-FcRn, pH 5.5, 1:1 Langmuir
Experimental: as §1, §2, §3

Binder | Kd [4] | koff [4] | kon [4] | Kd (HSA K573P) | koff (HSA K573P) | kon (HSA K573P) | Kd [6] | koff [6] | kon [6] | Kd [7] | koff [7] | kon [7] | also measured
B1 | 1300 nM | 0.0401 s⁻¹ | 31200 M⁻¹ s⁻¹ | 1900 nM | 0.0622 s⁻¹ | 32700 M⁻¹ s⁻¹ |  |  |  |  |  |  | Kd [1]: 232000 nM; Kd [2]: 468000 nM; Kd [3]: 210000 nM
B2 | 360000 nM | 0.181 s⁻¹ | 500 M⁻¹ s⁻¹ | 190000 nM | 0.297 s⁻¹ | 1500 M⁻¹ s⁻¹ |  |  |  |  |  |  | 
B3 |  |  |  |  |  |  | 1200 nM | 0.012 s⁻¹ | 10000 M⁻¹ s⁻¹ | 1540 nM | 0.02 s⁻¹ | 13000 M⁻¹ s⁻¹ | Kd [5]: 2400 nM; koff [5]: 0.013 s⁻¹; kon [5]: 5300 M⁻¹ s⁻¹
B4 |  |  |  |  |  |  | 2700 nM | 0.053 s⁻¹ | 20000 M⁻¹ s⁻¹ |  |  |  | Kd [8]: 23000 nM
B5 |  |  |  |  |  |  |  |  |  |  |  |  | Kd [9]: 1100 nM; koff [9]: 0.0419 s⁻¹; kon [9]: 36200 M⁻¹ s⁻¹
B6 |  |  |  |  |  |  | 1400 nM | 0.013 s⁻¹ | 9200 M⁻¹ s⁻¹ | 280 nM | 0.0034 s⁻¹ | 12000 M⁻¹ s⁻¹ | 
